One series deals with T1, Peptide 10.
T1 chain: VEPIPY

For another series, the target named is T2, Peptide 11.
T2 chain: RGPFPI

The target in another series is T3, Peptide 12.
T3 chain: ARPAK

Another series addresses T4, Peptide 13.
T4 chain: PNPNQGNFI

Another series deals with T5, Peptide 14.
T5 chain: RHPKYKTEL

The target in another series is T6, Peptide 15.
T6 chain: GVPKTHLEL

The next series addresses T7, Peptide 16.
T7 chain: KGPPAALTL

For the next series, the target named is T8, Peptide 18.
T8 chain: FLREPVIFL

The target of another series is T9, Peptide 19.
T9 chain: GIRPYEILA

Another series concerns the target T10, Peptide 22.
T10 chain: KIAGYHLEL

For a further series, the target named is T11, Peptide 2.
T11 chain: RPPGF

A further series deals with T12, Peptide 5.
T12 chain: RPGFSPFR

Another series concerns the target T13, Peptide 8.
T13 chain: VPPGEDSK

The target of the next series is T14, Peptide 9.
T14 chain: VPPGEDSK

Data on one protein can be found in patent US6875851.

B1: prolyl-tripeptidyl peptidase A from P. gingivalis (protein)
chain: QSPETSGKEFTLEQLMPGGKEFYNFYPEYVVGLQWMGDNYVFIEGDDLVFNKANGKSAQTTRFSAADLNALMPEGCKFQTTDAFPSFRTLDAGRGLVVLFTQGGLVGFDMLARKVTYLFDTNEETASLDFSPVGDRVAYVRNHNLYIARGGKLGEGMSRAIAVTIDGTETLVYGQAVHQREFGIEKGTFWSPKGSCLAFYRMDQSMVKPTPIVDYHPLEAESKPLYYPMAGTPSHHVTVGIYHLATGKTVYLQTGEPKEKFLTNLSWSPDENILYVAEVNRAQNECKVNAYDAETGRFVRTLFVETDKHYVEPLHPLTFLPGSNNQFIWQSRRDGWNHLYLYDTTGRLIRQVTKGEWEVTNFAGFDPKGTRLYFESTEASPLERHFYCIDIKGGKTKDLTPESGMHRTQLSPDGSAIIDIFQSPTVPRKVTVTNIGKGSHTLLEAKNPDTGYAMPEIRTGTIMAADGQTPLYYKLTMPLHFDPAKKYPVIVYVYGGPHAQLVTKTWRSSVGGWDIYMAQKGYAVFTVDSRGSANRGAAFEQVIHRRLGQTEMADQMCGVDFLKSQSWVDADRIGVHGWSYGGFMTTNLMLTHGDVFKVGVAGGPVIDWNRYEIMYGERYFDAPQENPEGYDAANLLKRAGDLKGRLMLIHGAIDPVVVWQHSLLFLDACVKARTYPDYYVYPSHEHNVMGPDRVHLYETITRYFTDHL
Turning to B1, the Cleavage site result with Peptide 1 is on record as “H-Arg-Pro-Pro-↓-Gly-Phe-Ser-Pro-Phe-Arg”; in the series with Peptide 10, “H-Val-Glu-Pro-↓-Ile-Pro-Tyr”; with Peptide 11, “H-Arg-Gly-Pro-↓-Phe-Pro-Ile”; with Peptide 12 it was “H-Ala-Arg-Pro-↓-Ala-D-Lys-amide”; with Peptide 13, “H-Pro-Asn-Pro-↓-Asn-Gln-Gly-Asn-Phe-Ile”; in the series with Peptide 14 it was “H-Arg-His-Pro-↓-Lys-Tyr-Lys-Thr-Glu-Leu”. Further, the Cleavage site entry with Peptide 15 was “H-Gly-Val-Pro-↓-Lys-Thr-His-Leu-Glu-Leu”; in the series with Peptide 2, “H-Arg-Pro-Pro-↓-Gly-Phe”; in the series with Peptide 8, “H-Val-Pro-Pro-↓-Gly-Glu-Asp-Ser-Lys”. The “Cleavage site (no ↓ printed: not cleaved)” value is on record as “H-Lys-Gly-Pro-Pro-Ala-Ala-Leu-Thr-Leu” with Peptide 16; “H-Phe-Leu-Arg-Glu-Pro-Val-Ile-Phe-Leu” in the series with Peptide 18; “H-Gly-Ile-Arg-Pro-Tyr-Glu-Ile-Leu-Ala” in the series with Peptide 19; “H-Lys-Ile-Ala-Gly-Tyr-His-Leu-Glu-Leu” with Peptide 22; “H-Arg-Pro-Hyp-Gly-Phe-Ser-Pro-Phe-Arg” in the series with Peptide 5; “Ac-Val-Pro-Pro-Gly-Glu-Asp-Ser-Lys” in the series with Peptide 9.
